Experimental data as given in PMC3686096 (Journal of the American Chemical Society, 2013).

Test: Control: unseeded Aβ1–40 solution checked for fibrils by TEM or AFM
Format: physicochemical
Settings: unseeded 50 µM Aβ1–40 solution, 30 min incubation

Aβ1–40: 40-residue β-amyloid peptide, made by solid-phase synthesis; also literature fibrils of unspecified polymorph
fibril formation in unseeded solution: no fibrils were observed
